In publication PMC5818494, “Specific Recognition of Arginine Methylated Histone Tails by JMJD5 and JMJD7” (Scientific Reports, 2018) one finds Kd data, which are given here for three substances.

Read-outs that look alike come from different tables or passages of the source.

Experiment [1] has as its target calf bulk histone. The experiment is described as follows: SPR; Biacore; 10 μg/ml calf bulk histone in 50 mM sodium acetate pH 5.0 coated onto a CM5 chip; enzyme injected at different concentrations; room temperature; non-linear binding kinetics, ranges estimated.
Experiment [2] has as its target calf bulk histone. Described as above. This is another data set of the same source.
Experiment [3] deals with histone H3 peptide (pH3) N-terminal tail peptide (Homo sapiens) (UniProt P68431). The experiment is described as follows: fluorescence polarization. To be noted: cited from earlier work. Background: Polarisation of emitted light reports the rotation of a fluorescent probe.
Experiment [4] has as its target histone H3 peptide pH3R2me2a N-terminal tail peptide (Homo sapiens) (UniProt P68431). The experiment is described as follows: fluorescence polarization. Particulars: cited from earlier work.
Experiment [5] concerns the target histone H3 peptide pH3K4(me2) N-terminal tail peptide (Homo sapiens) (UniProt P68431). Particulars: cited from earlier work.

c-JMJD5 catalytic core, sequence (Q8N371 183-416): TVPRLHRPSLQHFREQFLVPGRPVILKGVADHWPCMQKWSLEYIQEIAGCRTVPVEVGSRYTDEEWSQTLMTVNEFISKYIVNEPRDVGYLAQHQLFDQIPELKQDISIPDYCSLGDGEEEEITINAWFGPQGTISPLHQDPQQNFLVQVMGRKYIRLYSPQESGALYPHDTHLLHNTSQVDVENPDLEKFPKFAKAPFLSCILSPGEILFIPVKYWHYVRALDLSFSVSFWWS
c-JMJD5 (JMJD5 residues 183–416, lacking the N-terminal domain), sequence (Q8N371 183-416): as above
JMJD7 (mouse), JMJD7 protein alone generated from GST-JMJD7 fusion protein, sequence (P0C872 whole entry, the tested form may be a part): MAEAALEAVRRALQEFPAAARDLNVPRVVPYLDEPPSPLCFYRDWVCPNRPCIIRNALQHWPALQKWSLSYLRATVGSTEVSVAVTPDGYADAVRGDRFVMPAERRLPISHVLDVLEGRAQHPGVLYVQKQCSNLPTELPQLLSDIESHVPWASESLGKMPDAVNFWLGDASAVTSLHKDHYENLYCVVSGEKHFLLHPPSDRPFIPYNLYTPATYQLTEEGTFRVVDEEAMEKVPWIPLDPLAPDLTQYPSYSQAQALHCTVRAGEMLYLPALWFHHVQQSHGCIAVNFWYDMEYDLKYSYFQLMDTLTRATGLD

The term Kd denotes the constant that tells how readily two partners part at equilibrium. Take “JMJD7 (mouse), JMJD7 protein alone generated from GST-JMJD7 fusion protein (from UniProt P0C872 1-316) (enzyme)”: the Kd with calf bulk histone [1] is 1 to 50 µM; with calf bulk histone [2] it was 1 to 10 µM.
The matching figures for “c-JMJD5 (JMJD5 residues 183–416, lacking the N-terminal domain) (from UniProt Q8N371 183-416) (domain or fragment)”: 1 to 50 µM and 1 to 10 µM.
Regarding “c-JMJD5 catalytic core (from UniProt Q8N371)”, the dissociation constant (Kd) is 7 µM in experiment [3], 0.112 µM in experiment [4] and 4 µM in experiment [5].
